The target of the assay is FLAG-TWEAKR (human).

Substance “M2 anti-FLAG monoclonal antibody cross-linked with goat anti-mouse IgG (tool reagent)” registered a BrdU incorporation of transfected HUVEC of 6 fold.

The values are drawn from US20050208046A1.
